Paper PMC12394075

Target: HA-GSGS-tagged rat mGluR2 with TAG at Ala548 (CRD linker sensor) (rat) (UniProt P31421)

Sequence of Heterotrimeric Gi1 (P63096 whole entry, looked up, one chain of several): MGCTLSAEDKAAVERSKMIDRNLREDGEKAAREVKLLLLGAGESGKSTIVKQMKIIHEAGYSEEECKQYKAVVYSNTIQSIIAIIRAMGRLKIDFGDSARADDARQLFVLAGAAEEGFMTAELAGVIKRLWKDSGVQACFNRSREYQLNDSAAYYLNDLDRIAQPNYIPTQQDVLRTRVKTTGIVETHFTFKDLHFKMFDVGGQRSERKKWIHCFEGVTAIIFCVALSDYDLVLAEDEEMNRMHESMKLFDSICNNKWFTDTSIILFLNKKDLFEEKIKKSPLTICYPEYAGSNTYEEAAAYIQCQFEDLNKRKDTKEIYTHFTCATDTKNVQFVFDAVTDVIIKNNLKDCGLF

## Heterotrimeric Gi1 (from UniProt P63096 1-354) (complex)
  smFRET of the CRD sensor with 10 mM glutamate and 4–5 µM Gi1 heterotrimer: occupancy of the high-FRET state (E ~ 0.85): 20%
